Reference: US20040097586A1, “Anti-tumor compounds” (priority 2001, published 2004)
Peptide text beside a SMILES is read from it.

What was measured:
OF-1 mice = experiment: Toxicity/procoagulant activity after intravenous injection; type: in vivo; details: intravenous administration; dose levels as low as
Procedure: N-D-Ala-D-Leu-D-Ala-D-Leu-DNR was injected in the lateral tail vein of OF-1 mice at different dose levels in order to determine the minimal dose that induces acute toxicity and kills the animals in less than an hour following the injection. Animals were injected with this dose level and sacrificed befor death resulting from the injection of the conjugate occurs. Organs and tissues were collected, fixed and prepared for histopathology.

tumor-bearing mice = experiment: Tissue distribution studies in tumor-bearing mice; type: in vivo; details: i.v., plasma and tissues, RP-HPLC
Procedure: Mice bearing the same tumor types used for efficacy studies were used. They were injected i.v. with the prodrug, and anesthetized at selected time points. Plasma and tissues (tumor, liver, kidney, spleen, heart, lung and skeletal muscle) were recovered, snap frozen in liquid nitrogen and stored at −80° C. The prodrug and its metabolites were then extracted and quantified by RP-HPLC with fluorescence detection.

[1] = type: in vitro ADME, human
Procedure: The stability of this prodrug in whole human blood was determined, and its activation into the DNR-D-tetrapeptide (or any other positively charged derivative) was checked after incubation in the presence of human cancer cells conditioned media. Breast (MCF-7, MDA-MB-231), colon (LS-174-T), prostate (LNCaP) and lung (COR-L23, NCl-H69) cancer cell lines were used. Metabolites were analyzed by reverse phase-high pressure liquid chromatography (RP-HPLC), and fluorescence detection was used to identify and quantify the DNR derivatives generated over time. […] This particular prodrug is suitable for the in vivo validation of the concept.

[2] = Test of polycationic polymers as procoagulant; details: commercially available polymer
Procedure: An alternative to aggregation inducers to form the positively charged ‘particles’ responsible for coagulation is to use polymers such as poly-Lys. […] POIY-D-Lys of different size derivatized with D-amino acids, dipeptides, tripeptides or tetrapeptides on their terminal and side chain free amino groups were prepared (FIG. 5). Their toxicity and procoagulant activities were compared, and interesting candidates were used for the preparation of prodrugs (FIG. 5). N-succinyl-[…]-Ala-L-Leu-L-Ala-L-Leu or PEG-Ala-Leu-Ala-Leu prodrugs were prepared and compared in terms of efficacy and toxicity to the prodrugs based on aggregation inducers as described above. Alternatively, tests were performed using poly-D-Arg.

enzyme X = details: cited from earlier work

Q: Which “dose level inducing disseminated intravascular blood clotting” value (OF-1 mice) does the source give for `COc1cccc2c1C(=O)c1c(O)c3c(c(O)c1C2=O)C[C@@](O)(C(C)=O)C[C@@H]3O[C@H]1C[C@H](NC(=O)[C@@H](CC(C)C)NC(=O)[C@@H](C)NC(=O)[C@@H](CC(C)C)NC(=O)[C@@H](C)N)[C@H](O)[C@H](C)O1` [N-D-Ala-D-Leu-D-Ala-D-Leu-daunorubicin, N-D-Ala-D-Leu-D-Ala-D-Leu-DNR] (HELM PEPTIDE1{[dA].[dL].[dA].[dL].[COc1cccc2c1C(=O)c1c(O)c3c(c(O)c1C2=O)C[C@@](O)(C(C)=O)C[C@@H]3O[C@H]1C[C@H](N[*:1])[C@H](O)[C@H](C)O1]}$$$$V2.0) here?
A: 34.5 µmol/kg

Q: Which “tissue distribution: site of metabolite generation” value (tumor-bearing mice) does the source give for “N-mPEG350-[…]-Ala-L-Leu-L-Ala-L-Leu-D-Ala-D-Leu-D-Ala-D-Leu-DNR” here?
A: generation of a positively-charged procoagulant metabolite specifically within the tumor

Q: And the “metabolite formed upon incubation in cancer cells conditioned media” value [1]?
A: yielded the positively-charged N-L-Leu-D-Ala-D-Leu-D-Ala-D-Leu-DNR derivative

Q: What about the “stability in whole human blood” value [1] of the same compound?
A: relatively stable

Q: For `COc1cccc2c1C(=O)c1c(O)c3c(c(O)c1C2=O)C[C@@](O)(C(=O)CO)C[C@@H]3O[C@H]1C[C@H](NC(=O)[C@@H](CC(C)C)NC(=O)[C@@H](C)NC(=O)[C@@H](CC(C)C)NC(=O)[C@@H](C)N)[C@H](O)[C@H](C)O1` [N-D-Ala-D-Leu-D-Ala-D-Leu-doxorubicin] (HELM PEPTIDE1{[dA].[dL].[dA].[dL].[COc1cccc2c1C(=O)c1c(O)c3c(c(O)c1C2=O)C[C@@](O)(C(=O)CO)C[C@@H]3O[C@H]1C[C@H](N[*:1])[C@H](O)[C@H](C)O1]}$$$$V2.0; N-terminus and C-terminus assumed), which “dose level inducing disseminated intravascular blood clotting” value (OF-1 mice) is on record?
A: 34.5 µmol/kg

Q: With Poly-D-Lys as the compound, how does the “test as procoagulant polymer” value [2] read?
A: positively tested

Q: With N-succinyl-[…]-Ala-L-Leu-L-Ala-L-Leu as the compound, how does the “substrate quality for enzyme X” value (enzyme X) read?
A: optimal substrate
